Biological target: N-terminus His-tag cleaved rBPSL1038 (rBPSL1038-post-cleavage) (Burkholderia pseudomallei) (UniProt Q63W52)
Experiment: SEC

N-terminus His-tag cleaved rBPSL1038 (rBPSL1038-post-cleavage) (from UniProt Q63W52 1-88) (natural protein)
stoichiometry N: 2
